T1: FcγRIIb (UniProt P31994 46-217, limits assumed)
T1 sequence (looked up): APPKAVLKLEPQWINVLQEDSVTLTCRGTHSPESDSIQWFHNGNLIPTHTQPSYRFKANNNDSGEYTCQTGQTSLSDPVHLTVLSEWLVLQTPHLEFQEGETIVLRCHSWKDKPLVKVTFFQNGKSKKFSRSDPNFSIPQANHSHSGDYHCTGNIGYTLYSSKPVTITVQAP

B1: G1003 (Fc fusion)
chain: ERKCCVECPPCPEPKSCDKTHTCPPCPAPELLGGPSVFLFPPKPKDTLMISRTPEVTCVVVDVEFEDPEVKFNWYVDGVEVHNAKTKPREEQYNSTYRVVSVLTVLHQDWLNGKEYKCKVTNKALPAPIEKTISKAKGQPREPQVYTLPPSREEMTKNQVSLTCLVKGFYPSDIAVEWESNGQPENNYKTTPPVLDSDGSFFLYSKLTVDKSRWQQGNVFSCSVMHEALHNHYTQKSLSLSPGK
notes: G019 background, S267E/H268F/S324T; leader 1-20 cleaved
B2: G1049 (Fc fusion)
chain: B1 chain with L125F, E153D, M155L
notes: G019 background, S267E/H268F/S324T/L328F; leader 1-20 cleaved
B3: G1032 (Fc fusion)
chain: EPKSCDKTHTCPPCPAPEAAGGPSVFLFPPKPKDTLMISRTPEVTCVVVDVEFEDPEVKFNWYVDGVEVHNAKTKPREEQYNSTYRVVSVLTVLHQDWLNGKEYKCKVTNKALPAPIEKTISKAKGQPREPQVYTLPPSRDELTKNQVSLTCLVKGFYPSDIAVEWESNGQPENNYKTTPPVLDSDGSFFLYSKLTVDKSRWQQGNVFSCSVMHEALHNHYTQKSLSLSPGKERKCCVECPPCP
notes: G045c background, L234A/L235A/S267E/H268F/S324T; leader 1-20 cleaved
B4: G997 (Fc fusion)
chain: B3 chain with A19L, A20L
notes: G045c background, S267E/H268F/S324T; leader 1-20 cleaved
B5: G1105 (Fc fusion)
chain: B3 chain with E18P, A19L, A20L, G21N, E52S
notes: G045c background, E233P/G236N/H268F/S324T; leader 1-20 cleaved
B6: G1088 (Fc fusion)
chain: B3 chain with E18P, A19L, A20L, G21Q, E52S
notes: G045c background, E233P/G236Q/H268F/S324T; leader 1-20 cleaved
B7: G1094 (Fc fusion)
chain: B3 chain with A19L, A20L, E52Q, T84A
notes: G045c background, S267Q/H268F/S324T/T299A; leader 1-20 cleaved
B8: G1117 (Fc fusion)
chain: B3 chain with E18P, A19L, A20L, G21D, E52D
notes: G045c background, E233P/G236D/S267D/H268F/S324T; leader 1-20 cleaved
B9: G1093 (Fc fusion)
chain: B3 chain with A19L, A20L, E52K, T84A
notes: G045c background, S267K/H268F/S324T/T299A; leader 1-20 cleaved
B10: G1111 (Fc fusion)
chain: B3 chain with E18P, A19L, A20L, G21D, E52Q
notes: G045c background, E233P/G236D/S267Q/H268F/S324T; leader 1-20 cleaved
B11: G1125 (Fc fusion)
chain: B3 chain with E18P, A19L, A20L, E52H
notes: G045c background, E233P/S267H/H268F/S324T; leader 1-20 cleaved
B12: G1103 (Fc fusion)
chain: B3 chain with E18P, A19L, A20L, G21E, E52S
notes: G045c background, E233P/G236E/H268F/S324T; leader 1-20 cleaved
B13: G1101 (Fc fusion)
chain: B3 chain with E18P, A19L, A20L, E52D
notes: G045c background, E233P/S267D/H268F/S324T; leader 1-20 cleaved
B14: G1122 (Fc fusion)
chain: B3 chain with E18P, A19L, A20L, G21H, E52Q
notes: G045c background, E233P/G236H/S267Q/H268F/S324T; leader 1-20 cleaved
B15: G1107 (Fc fusion)
chain: B3 chain with A19L, A20L, E52H, T84A
notes: G045c background, S267H/H268F/S324T/T299A; leader 1-20 cleaved
B16: G1129 (Fc fusion)
chain: B3 chain with E18P, A19L, A20L, G21N
notes: G045c background, E233P/G236N/S267E/H268F/S324T; leader 1-20 cleaved
B17: G1108 (Fc fusion)
chain: B3 chain with E18P, A19L, A20L, E52N
notes: G045c background, E233P/S267N/H268F/S324T; leader 1-20 cleaved
B18: G1102 (Fc fusion)
chain: B3 chain with E18P, A19L, A20L, E52Q
notes: G045c background, E233P/S267Q/H268F/S324T; leader 1-20 cleaved
B19: G1084 (Fc fusion)
chain: B3 chain with E18P, A19L, A20L, E52K
notes: G045c background, E233P/S267K/H268F/S324T; leader 1-20 cleaved
B20: G1114 (Fc fusion)
chain: B3 chain with E18P, A19L, A20L, G21Q, E52D
notes: G045c background, E233P/G236Q/S267D/H268F/S324T; leader 1-20 cleaved
B21: G1104 (Fc fusion)
chain: B3 chain with E18P, A19L, A20L, G21D, E52S
notes: G045c background, E233P/G236D/H268F/S324T; leader 1-20 cleaved
B22: G1131 (Fc fusion)
chain: B3 chain with E18P, A19L, A20L, G21R, E52N
notes: G045c background, E233P/G236R/S267N/H268F/S324T; leader 1-20 cleaved
B23: G1070 (Fc fusion)
chain: B3 chain with A19L, A20L, E52K, N82A
notes: G045c background, S267K/H268F/S324T/N297A; leader 1-20 cleaved
B24: G1095 (Fc fusion)
chain: B3 chain with A19L, A20L, E52N, T84A
notes: G045c background, S267N/H268F/S324T/T299A; leader 1-20 cleaved

Where a chain is given by its changes, count along the chain named. Numbers in names are those of the source.

T2 sequence (P12314 16-288 limits assumed): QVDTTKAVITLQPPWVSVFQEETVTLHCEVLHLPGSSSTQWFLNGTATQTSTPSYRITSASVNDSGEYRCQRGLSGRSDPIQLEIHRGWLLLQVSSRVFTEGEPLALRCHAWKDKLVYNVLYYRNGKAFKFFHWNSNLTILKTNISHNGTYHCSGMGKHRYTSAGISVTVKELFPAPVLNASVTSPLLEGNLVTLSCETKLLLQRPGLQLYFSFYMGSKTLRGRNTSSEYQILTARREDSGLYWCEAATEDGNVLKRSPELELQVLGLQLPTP
T3 sequence (P02745 23-245 limits assumed, chain 1 of 3): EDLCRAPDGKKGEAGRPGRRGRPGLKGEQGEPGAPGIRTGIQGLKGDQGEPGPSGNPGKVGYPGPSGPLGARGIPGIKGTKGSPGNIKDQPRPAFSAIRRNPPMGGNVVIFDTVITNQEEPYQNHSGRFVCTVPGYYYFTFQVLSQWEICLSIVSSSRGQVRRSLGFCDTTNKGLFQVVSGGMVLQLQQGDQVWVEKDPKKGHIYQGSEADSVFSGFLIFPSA
T3 sequence (P02746 28-253 limits assumed, chain 2 of 3): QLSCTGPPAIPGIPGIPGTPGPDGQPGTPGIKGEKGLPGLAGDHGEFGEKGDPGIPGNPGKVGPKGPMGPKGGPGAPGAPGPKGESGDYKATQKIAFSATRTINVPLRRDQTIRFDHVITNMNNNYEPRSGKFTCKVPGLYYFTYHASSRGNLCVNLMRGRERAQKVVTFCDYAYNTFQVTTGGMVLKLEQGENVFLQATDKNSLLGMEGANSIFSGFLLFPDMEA
T3 sequence (P02747 29-245 limits assumed, chain 3 of 3): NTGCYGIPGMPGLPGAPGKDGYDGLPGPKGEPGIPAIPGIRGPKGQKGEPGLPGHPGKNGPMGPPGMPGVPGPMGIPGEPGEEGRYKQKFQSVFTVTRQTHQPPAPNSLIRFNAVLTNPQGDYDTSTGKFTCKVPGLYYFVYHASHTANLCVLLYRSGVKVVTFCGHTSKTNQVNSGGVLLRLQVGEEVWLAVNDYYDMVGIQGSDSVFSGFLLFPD

One assay addresses T2, FcγRI (UniProt P12314 16-288).
T2 construct: also called CD64
Briefly: BLI (Octet). As to the method:
(§1) Binding of complement-preferential stradomers or parent stradomer G045c to FcγRI, FcγRIIb, FcγRIIIa, FcγRIIa, or FcRn was assessed. RU values of dissociation were measured by biolayer interferometry using a ForteBio Octet instrument. His-tagged receptor proteins were bound to the sensor tip in 1× kinetic analysis buffer from ForteBio after which the on rate of the receptor/protein was measured by transferring the sensor tip to a 1× kinetics buffer containing the purified stradomer of choice. Off rate was measured by transferring the sensor tip to a 1× kinetics buffer, and RU value was calculated from the measured maximum binding using the ForteBio software. Biolayer interferometry detects the binding between a ligand immobilized on the biosensor tip surface and an analyte in solution. When binding occurs it produces an increase in optical thickness at the biosensor tip, which results in a wavelength shift (detected as a response unit of “RU”). The maximum binding level (RU max) is the maximum possible amount of sample binding at equilibrium that saturates the amount of ligand on the sensor surface. The RU 300 is the residual sample binding after 300 seconds of dissociation and is useful to characterize the rate of dissociation of the test article from the test ligand.
In general terms: BLI is a label-free optical method that tracks binding on a fibre tip over time.
In the case of B1, the binding result is recorded as “binds”.

Take B2: the binding result was “binds”.

Consider B3, for which the binding result is on record as “binds”.

For the molecule B4, the binding result is reported as “binds”.

Another assay has as its target T1, FcγRIIb. Kind of assay: BLI (Octet). As to the method:
as §1
Turning to B1, the binding result is “binds”.

On to B2, for which the binding result is listed as “binds”.

Regarding B3, the binding result is on record as “binds”.

Turning to B4, the binding result is listed as “binds”.

The next assay deals with T2, FcγRI. Kind of assay: BLI (Octet). This is another data set of the same source. As to the method:
as §1
(§2) For each stradomer in Tables 5-9, the level of canonical FcγR binding, complement C1q binding, and CDC inhibition were determined according to the methods described in Example 1.
In the case of B5, the binding result is on record as “binds”.

B6: the binding result is listed as “binds”.

With B7, the binding result was “binds”.

As for B8, the binding result is listed as “binds”.

For B9, the binding result is “binds”.

B10: the binding result is given as “binds”.

Take B11: the binding result was “binds”.

Regarding B12, the binding result is on record as “binds”.

With B13, the binding result is on record as “binds”.

For B14, the binding result is on record as “binds”.

Consider B15, for which the binding result is reported as “binds”.

With B16, the binding result was “binds”.

For B17, the binding result was “binds”.

Turning to B18, the binding result is “binds”.

Turning to B19, the binding result was “binds”.

On to B20, for which the binding result is recorded as “binds”.

On to B21, for which the binding result was “binds”.

With B22, the binding result is on record as “binds”.

Turning to B23, the binding result is “binds”.

Consider B24, for which the binding result is reported as “binds”.

The target in another assay is T1, FcγRIIb. Briefly: BLI (Octet). This is another data set of the same source. As to the method:
as §1, §2
In the case of B5, the binding result is on record as “binds”.

As for B6, the binding result is on record as “binds”.

Take B7: the binding result was “binds”.

For the molecule B8, the binding result is given as “binds”.

For the molecule B10, the binding result is “binds”.

With B11, the binding result is reported as “binds”.

For B12, the binding result is “binds”.

Turning to B13, the binding result is on record as “binds”.

For B14, the binding result is given as “binds”.

As to B15, the binding result is given as “binds”.

With B16, the binding result was “binds”.

As to B17, the binding result is listed as “binds”.

For B18, the binding result is reported as “binds”.

In the case of B20, the binding result is listed as “binds”.

Regarding B21, the binding result is listed as “binds”.

For the molecule B24, the binding result is reported as “binds”.

Another assay concerns the target T3, C1q (UniProt P02745 23-245; P02746 28-253; P02747 29-245).
T3 construct: bought C1q coated on ELISA plates at 1 µg/ml; also called complement C1q; complement factor C1q
Briefly: ELISA on coated C1q. As to the method: (§3) For C1q binding, 96 well plates were coated with C1q (Sigma Cat #: C1740 1 μg/ml) overnight in PBS. After coating, plates were washed 3 times with standard wash buffer (iX PBS+0.05% Tween 20) and blocked with blocking buffer (1% BSA+1× PBS+0.05% Tween 20) for 2 hours at RT. Following blocking, plates were incubated with compound diluted in blocking buffer 100 μL/well and washed 3 times with standard washing buffer. C1q-bound compound was detected by incubation with 1:5000 biotinylated mouse anti-human IgG1(Cat #555869, BD Biosciences) and Streptavidin-HRP (Cat #: 7100-05 Southern Biotech) (100 μl/well) for 1 hour at room temperature followed by washing 3 times with washing buffer, after which color was developed using the standard TMB method according to manufacturer's protocol for 15 minutes. Absorbance was read at 450 nm.
As for B1, the binding result was “binds”.

B2: the binding result is recorded as “binds”.

Consider B3, for which the binding result is given as “binds”.

With B4, the binding result is “binds”.

In a further assay the target is T3, C1q. Kind of assay: ELISA on coated C1q. The source holds these as a separate data set. As to the method: as §3, §2
With B9, the binding result is listed as “binds”.

For the molecule B19, the binding result is given as “binds”.

Regarding B23, the binding result is “binds”.

A further assay addresses T3, C1q. Kind of assay: cell-based or functional assay.
On to B5, for which the “CDC Inhibition (EC50, µg/mL)” value turned out to be 5 µg/mL.

As to B6, the “CDC Inhibition (EC50, µg/mL)” value was found to be 5 µg/mL.

On to B7, for which the “CDC Inhibition (EC50, µg/mL)” value amounted to 12.5 µg/mL.

As for B8, the “CDC Inhibition (EC50, µg/mL)” value came to 5 µg/mL.

Take B10: the “CDC Inhibition (EC50, µg/mL)” value is 5 µg/mL.

Take B11: the “CDC Inhibition (EC50, µg/mL)” value is 5 µg/mL.

B12: the “CDC Inhibition (EC50, µg/mL)” value is 5 µg/mL.

With B13, the “CDC Inhibition (EC50, µg/mL)” value amounted to 5 µg/mL.

In the case of B14, the “CDC Inhibition (EC50, µg/mL)” value amounted to 5 µg/mL.

On to B15, for which the “CDC Inhibition (EC50, µg/mL)” value amounted to 12.5 µg/mL.

For B16, the “CDC Inhibition (EC50, µg/mL)” value is 5 µg/mL.

B17: the “CDC Inhibition (EC50, µg/mL)” value is 5 µg/mL.

Turning to B18, the “CDC Inhibition (EC50, µg/mL)” value worked out at 7.5 µg/mL.

As to B20, the “CDC Inhibition (EC50, µg/mL)” value is 5 µg/mL.

Regarding B21, the “CDC Inhibition (EC50, µg/mL)” value was determined as 5 µg/mL.

For the molecule B22, the “CDC Inhibition (EC50, µg/mL)” value is 15 µg/mL.

Turning to B24, the “CDC Inhibition (EC50, µg/mL)” value stood at 15 µg/mL.

These data come from patent publication US20250011433A1 (GLIKNIK, published 2025).
